Source: paper PMC4376459, “CXCR3 antagonist VUF10085 binds to an intrahelical site distinct from that of the broad spectrum antagonist TAK-779” (British Journal of Pharmacology, 2015)

Target: T1, CXCR3 N132A (Homo sapiens, UniProt P49682, N132A)
T1 construct: expressed in transfected cells; host or cells: murine pre-B cell line L1.2, transient transfection
T1 sequence (P49682 1-368 N132A): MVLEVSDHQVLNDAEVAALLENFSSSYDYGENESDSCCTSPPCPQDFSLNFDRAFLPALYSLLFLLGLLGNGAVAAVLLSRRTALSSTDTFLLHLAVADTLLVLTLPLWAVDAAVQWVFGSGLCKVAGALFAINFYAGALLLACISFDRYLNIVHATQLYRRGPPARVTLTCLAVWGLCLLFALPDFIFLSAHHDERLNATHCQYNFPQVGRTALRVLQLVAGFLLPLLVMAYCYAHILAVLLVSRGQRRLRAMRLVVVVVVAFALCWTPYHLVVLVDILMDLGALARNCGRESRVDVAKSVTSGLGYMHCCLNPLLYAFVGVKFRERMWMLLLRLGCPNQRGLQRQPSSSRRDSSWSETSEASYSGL
Test: Whole-cell 125I-CXCL11 binding assay, L1.2 transfectants
Conditions: maximum concentration of CXCL11
Experimental: A previously described pcDNA3 plasmid containing human wild type (WT) CXCR3 cDNA with an HA epitope tag encoded at the N terminus (Meiser et al., [2008]) was used as a template for the generation of point mutants by PCR using the QuikChange II site-directed mutagenesis kit (Stratagene, Amsterdam, the Netherlands). All constructs were verified by DNA sequencing (Eurofins MWG Operon, Ebersberg, Germany) before use. L1.2 cells were transiently transfected by electroporation with 1 μg of vector DNA/10^6 cells at 330V, 975μF and incubated overnight in medium supplemented with 10 mM of sodium butyrate to enhance gene expression.
Whole-cell binding assays on transiently transfected L1.2 cells were performed as described previously (Vaidehi et al., [2009]) using 0.1 nM ^125I-CXCL11 (Perkin Elmer) and increasing concentrations of unlabeled CXCL11 or antagonist. Cell-associated radioactivity was counted in a Canberra Packard Cobra 5010 gamma counter (Canberra Packard, Pangebourne, UK). Curve fitting and subsequent data analysis was carried out using the program PRISM (GraphPad Software, Inc., San Diego, CA, USA) and IC50 values were obtained by non-linear regression analysis. In all experiments, each data point was assayed in duplicate, with each individual experiment repeated three times. Background binding levels obtained in the presence of a 1000–3000 molar excess of unlabelled chemokine were subtracted from each data point and data are presented as the percentage of counts obtained in the absence of competing ligand. KD values and the number of binding sites per cell were calculated from homologous binding curves prepared in Graph Pad Prism (La Jolla, CA, USA) as previously described (Nedjai et al., [2011]).

CXCL11: recombinant human chemokine, CXCR3 agonist, purchased from PeproTech
displacement of 125I-CXCL11 by unlabelled CXCL11: unable to displace 50%
